The source of these data is patent US20260098102A1 (NATIONAL UNIVERSITY CORPORATION KOBE UNIVERSITY, published 2026).

For test [1], the target named is T1, SIRPA_V1_IgV (human, UniProt P78324 31-149).
T1 construct: Secreted recombinant protein from FreeStyle 293F cells
Nature of the test: SPR Biacore T200, antibody captured, SIRPA_V1_IgV as analyte, 1:1 model. The procedure: The dissociation constants of the cD13, cF44, and cF63 prepared in Example 4 against the human SIRPA_V1_IgV prepared in Example 1 were determined by a capture method comprising capturing a human chimeric antibody as a ligand and measuring an antigen as an analyte, using Biacore T200 (GE Healthcare Bioscience Corp.). HBS-EP+ (GE Healthcare Bioscience Corp.) was used as a running buffer, and CM5 (GE Healthcare Bioscience Corp.) was used as a sensor chip. In an amount of 1 μg/mL human chimeric antibody was added onto a chip at a rate of 10 μL/min for 60 seconds, a serially diluted solution of human SIRPA protein as an antigen (0.5 to 8 μg/mL) was added at a flow rate of 30 μL/min for 120 seconds, and the dissociation phase continued to be monitored for 600 seconds. As a regenerant, 3 M magnesium chloride (GE Healthcare Bioscience Corp.) was added at a flow rate of 20 μL/min for 30 seconds. For data analysis, the binding rate constant (ka), dissociation rate constant (kd), and dissociation constant (KD; KD=kd/ka) were calculated using a 1:1 binding model.
(In general: Surface plasmon resonance follows binding to a sensor surface in real time, without labels.)

For the next test, the target named is T2, human SIRPA_V1 protein (human, UniProt P78324 31-504).
T2 construct: Expressed on 293α cells from pcDNA3.2 V5-DEST or pFLAG V5-DEST (FLAG-tagged) vectors; also called human SIRPA Variant 1; hSIRPA V1
T2 sequence (P78324 31-504 limits assumed): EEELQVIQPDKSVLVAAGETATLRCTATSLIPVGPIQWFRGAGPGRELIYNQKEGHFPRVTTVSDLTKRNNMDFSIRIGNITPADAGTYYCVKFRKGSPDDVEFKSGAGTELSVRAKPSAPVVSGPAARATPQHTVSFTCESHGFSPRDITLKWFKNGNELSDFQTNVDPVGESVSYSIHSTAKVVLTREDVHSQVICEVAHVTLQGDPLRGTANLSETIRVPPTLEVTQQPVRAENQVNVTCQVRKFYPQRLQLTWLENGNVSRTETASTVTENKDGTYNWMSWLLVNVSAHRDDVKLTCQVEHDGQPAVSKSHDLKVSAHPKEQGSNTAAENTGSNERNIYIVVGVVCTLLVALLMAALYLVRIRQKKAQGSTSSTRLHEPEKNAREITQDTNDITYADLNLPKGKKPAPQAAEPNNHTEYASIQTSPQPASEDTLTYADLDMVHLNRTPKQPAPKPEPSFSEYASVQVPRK
Nature of the test: blocking cell-based ELISA: peroxidase-labeled CD47-Fc (1 µg/mL) on 293α cells expressing SIRPA_V1. The procedure: After the culture supernatant of the human SIRPA_V1 or V2 expression vector-introduced 293 cells prepared in Example 9)-1 was removed, 50 μL per well of various anti-SIRPA antibodies or various control Human IgG diluted with 5% FBS-containing PBS to a final concentration of 0 to 10,000 ng/ml was added to each of pcDNA3.2 V5-DEST-SIRPA_V1 or V2-introduced 293α cells, immediately followed by addition of 50 µL per well of peroxidase-labeled CD47-Fc prepared with 5% FBS-containing PBS at 1 μg/mL, and the mixture was allowed to stand at 4° C. for one hour. Thereafter, the SIRPA-CD47 binding inhibitory activity was evaluated in the same manner as in 1)-6-3.

Another test concerns the target T3, human SIRPB (human, UniProt O00241 30-398).
T3 construct: whole, on cells; FLAG-tagged (pFLAG V5-DEST), on CHO-K1 cells; also called SIRPβ1; signal regulatory protein β1
Nature of the test: flow cytometry on CHO-K1 cells expressing FLAG-tagged human SIRPB; PE anti-human IgG; MFI standardized to secondary antibody alone. Here is the method: SIRPβ1 (signal regulatory protein β1: the amino acid sequence thereof is published as RefSeq accession number NP_006056) and SIRPγ (signal regulatory protein γ: the amino acid sequence thereof is published as RefSeq accession number NP_061026) are molecules belonging to the SIRPA family. In the present invention, “SIRPα” may be referred to as “SIRPA,” “SIRPβ1” may be referred to as […] and “SIRPγ” may be referred to as “SIRPG.” CHO-K1 cells were prepared in a 10% FBS-containing Ham's F-12K medium at 3.3×10⁵ cells/mL and cultured overnight at 37° C. under a 5% CO₂ condition. pFLAG V5-DEST-human SIRPβ, pFLAG V5-DEST-human SIRPG, or pFLAG V5-DEST was introduced into the cells using Lipofectamine LTX (Invitrogen), and cells were cultured in a 10% FBS-containing Ham's F-12K medium at 37° C. under a 5% CO₂ condition for 24 hours. The obtained introduced cells were collected and seeded on a 96-well plate. After the culture supernatant was removed, 100 μL per well of various anti-human SIRPA antibodies or various control human IgG was added to each of various gene introduced cells at a final concentration of 0 to 10,000 ng/mL, and the mixture was allowed to stand at 4° C. for 25 minutes. After the mixture was centrifuged, the supernatant was removed, and cells were washed twice with 5% FBS-containing PBS. After the mixture was centrifuged, the supernatant was removed, 50 μL per well of a 1/400 diluted solution of PE Mouse anti-Human IgG antibody (BioLegend) was added, and the mixture was allowed to stand at 4° C. for 25 minutes. After the mixture was centrifuged, the supernatant was removed, and cells were washed twice with 5% FBS-containing PBS.
After the mixture was centrifuged, and the supernatant was removed, cells were suspended in 100 μL per well of 1× BD Stabilizing Fixative (Becton Dickinson), and the cell count was measured by flow cytometry (FACS Canto II: Becton Dickinson). For data analysis, FlowJo (TreeStar) was used. Cells were characterized by detecting forward scattered (FSC) light and side-scattered (SSC) light, and then the mean fluorescence intensity of PE was calculated. Binding of various antibodies to the family molecules was calculated by standardizing the fluorescence intensity using the mean fluorescence intensity of a sample in which the secondary antibody alone was allowed to react.
In general terms: In flow cytometry, cells or beads pass a laser one at a time.

The target in test [2] is T1, SIRPA_V1_IgV. Nature of the test: SPR Biacore T200, antibody captured on anti-human IgG (Fc), SIRPA_V1_IgV as analyte (0.25 to 16 nM), 1:1 model. Here is the method: The dissociation constants were measured by a capture method comprising capturing each antibody as a ligand to an Anti-Human IgG (Fc) antibody immobilized using Human Antibody Capture Kit (GE Healthcare Bioscience Corp.) and measuring an antigen as an analyte, using Biacore T200 (GE Healthcare Bioscience Corp.). HBS-EP+ (GE Healthcare Bioscience Corp.) was used as a running buffer, and CM5 (GE Healthcare Bioscience Corp.) was used as a sensor chip. Onto the chip, 2 μg/mL of various antibodies were added at 10 μL/min for 30 seconds, then a serially diluted solution (0.25 to 16 nM) of the human SIRPA protein as an antigen was added at a flow rate of 30 μL/min for 120 seconds, and subsequently the dissociation phase for 600 seconds was monitored. As a regenerant, 3 M magnesium chloride (GE Healthcare Bioscience Corp.) was added at a flow rate of 20 μL/min for 30 seconds. For data analysis, a binding rate constant (ka), a dissociation rate constant (kd), and a dissociation constant (KD; KD=kd/ka) were calculated using a 1:1 binding model.

By Kd is commonly meant a measure of binding affinity in units of concentration. Low values mean tighter binding, high ones weaker binding. The term IC50 denotes the concentration needed to halve the response being measured. Read a high IC50 as weaker potency in that assay. The EC50 (read off the curve) is the concentration that produces a half-maximal response. Higher therefore signals weaker potency.

T1 sequence (P78324 other isoform, or with tags, fused parts or gaps limits assumed): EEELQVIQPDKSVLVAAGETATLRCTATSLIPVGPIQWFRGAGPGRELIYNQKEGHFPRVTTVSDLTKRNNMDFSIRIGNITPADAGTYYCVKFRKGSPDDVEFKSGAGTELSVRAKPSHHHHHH
T3 sequence (O00241 30-398): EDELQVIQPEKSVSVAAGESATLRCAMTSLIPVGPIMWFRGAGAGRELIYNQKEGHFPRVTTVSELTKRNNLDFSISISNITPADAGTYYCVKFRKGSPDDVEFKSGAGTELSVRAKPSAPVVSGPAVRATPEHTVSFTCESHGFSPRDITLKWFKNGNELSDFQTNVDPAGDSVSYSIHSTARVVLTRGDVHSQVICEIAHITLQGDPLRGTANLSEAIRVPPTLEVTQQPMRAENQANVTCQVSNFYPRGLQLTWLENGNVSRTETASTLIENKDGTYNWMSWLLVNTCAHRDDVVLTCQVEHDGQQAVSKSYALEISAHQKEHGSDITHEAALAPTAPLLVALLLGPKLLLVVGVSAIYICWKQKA

B1: human chimeric anti-SIRPA antibody cD13 (antibody, human IgG4 S228P, kappa, F234A L235A, V domains shown)
VH: EVQLVESGGGLVQPGRSLKLSCLASGFTFSDYGMIWVRQAPGKGLEWVASISSSSSYIYYADTVKGRFTISRENAKNTLFLHMTSLRSEDTALYYCARRYYGFNYPFDYWGQGVMVTVSS
VL: DTVLTQSPALAVSLGQRVTISCGASKSVRTYMHWYQQKSGQQPKLLIYSASNLEAGVPSRFSGSGSGTDFTLTIDPVEADDIANYYCQQSNEPPYTFGAGTKLELKR
notes: Human IgG4proFALA heavy chain, human kappa light chain; also called cD13 (IgG4pf); human chimeric antibody D13
In turn, B1 came in with a Kd in the test with SIRPA_V1_IgV [1] of 0.0811 nM.

B2: humanized anti-SIRPA antibody hD13_H1L3 (antibody, human IgG4 S228P, kappa, F234A L235A, V domains shown)
VH: QVQLVESGGGVVQPGRSLRLSCAASGFTFSDYGMIWVRQAPGKGLEWVASISSSSSYIYYADSVKGRFTISRDNSKNRLYLQMNSLRAEDTAVYYCARRYYGFNYPFDYWGQGTMVTVSS
VL: DTQLTQSPSSLSASVGQRVTITCGASKSVRTYMHWYQQKPGKQPKLLIYSASNLEAGVPSRFSGSGSGTDFTLTISSLQPEDFATYYCQQSNEPPYTFGQGTKLEIKR
notes: hH1 heavy chain (IgG4proFALA) and hL3 kappa light chain; also called hD13_HIL3; HIL3 antibody
B2: half-maximal inhibition with human SIRPA_V1 protein (IC50) required 1.58 µg/mL. Also, the “EC50 (read off the curve)” value in the test with human SIRPB is approximately 0.03 µg/mL. The molecule also showed a Kd with SIRPA_V1_IgV [2] of 0.252 nM.
